Data: PMC4364404

Biological target: T1, NgTet1 (Naegleria gruberi, UniProt D2W6T1 1-321)
T1 sequence: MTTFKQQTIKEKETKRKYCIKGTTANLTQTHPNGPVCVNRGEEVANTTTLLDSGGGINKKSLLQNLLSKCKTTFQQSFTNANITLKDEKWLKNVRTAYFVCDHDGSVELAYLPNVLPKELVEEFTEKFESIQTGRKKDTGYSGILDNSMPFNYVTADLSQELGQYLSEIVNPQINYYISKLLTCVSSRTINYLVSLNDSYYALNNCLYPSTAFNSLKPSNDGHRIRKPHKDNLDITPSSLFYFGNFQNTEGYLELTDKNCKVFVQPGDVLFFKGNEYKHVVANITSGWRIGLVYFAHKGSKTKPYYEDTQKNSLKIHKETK
Assay: X-ray crystallography

B1: 14-bp fully methylated CpG DNA (dsDNA)
DNA 1: TGGAACGCAATTCT
DNA 2: AGAATTGCGTTCCA
modifications: 5mC at position 6 of strand 1 and position 8 of strand 2
**Q.** Does B1 bind?
**A.** binds
